We go through two molecules from PMC7982548 (The Journal of Biological Chemistry, 2005).

Like-named read-outs stand apart in the source and are kept apart here.

Data set [1] deals with the molecule itself. In words: ITC.
The target of data set [2] is 6-amino acid model peptide substrate ([…]). In words: SPR. Background: In SPR one partner is held on a chip, and binding of the other changes the refractive index at the surface.
Data set [3] deals with the molecule itself. In words: SEC. A general note: Size exclusion chromatography separates by hydrodynamic size, large species first.
Data set [4] concerns the molecule itself. In words: ITC. This is another data set of the same source. In general terms: Isothermal titration calorimetry measures the heat released or taken up as one component is titrated into another.

B1: full-length SARS coronavirus 3C-like proteinase (enzyme)
chain: SGFRKMAFPSGKVEGCMVQVTCGTTTLNGLWLDDTVYCPRHVICTAEDMLNPNYEDLLIRKSNHSFLVQAGNVQLRVIGHSMQNCLLRLKVDTSNPKTPKYKFVRIQPGQTFSVLACYNGSPSGVYQCAMRPNHTIKGSFLNGSCGSVGFNIDYDCVSFCYMHHMELPTGVHAGTDLEGKFYGPFVDRQTAQAAGTDTTITLNVLAWLYAAVINGDRWFLNRFTTTLNDFNLVAMKYNYEPLTQDHVDILGPLSAQTGIAVLDMCAALKELLQNGMNGRTILGSTILEDEFTPFDVVRQCSGVTFQ
Usually Kd stands for the free concentration of one partner at which half of the binding sites on the other are occupied at equilibrium, for simple one-to-one binding. In data set [1], B1 gave a Kd of 227 ± 34 µM and a dH of -8.28 ± 0.103 kcal/mol. The Kd in data set [2] is approximately 152 µM.

B2: N-terminal deleted SARS 3CL^pro (residues 8-303) (domain or fragment)
chain: FPSGKVEGCMVQVTCGTTTLNGLWLDDTVYCPRHVICTAEDMLNPNYEDLLIRKSNHSFLVQAGNVQLRVIGHSMQNCLLRLKVDTSNPKTPKYKFVRIQPGQTFSVLACYNGSPSGVYQCAMRPNHTIKGSFLNGSCGSVGFNIDYDCVSFCYMHHMELPTGVHAGTDLEGKFYGPFVDRQTAQAAGTDTTITLNVLAWLYAAVINGDRWFLNRFTTTLNDFNLVAMKYNYEPLTQDHVDILGPLSAQTGIAVLDMCAALKELLQNGMNGRTILGSTILEDEFTPFDVVRQCSGVTFQ
Take B2: in data set [1], the Kd turned out to be 262 ± 15 µM and the dH was -6.89 ± 0.25 kcal/mol. In data set [3], the “dimer/monomer ratio at 1 mg/ml” value is 0.65, the “dimer/monomer ratio at 2 mg/ml” value came out at 0.66 and the “dimer/monomer ratio at 7 mg/ml” value was 0.8. The molecule further returned a Kd in data set [4] of 261 ± 15 µM.
